Measured values as given in article PMC3397948, “Cytoplasmic Sulfurtransferases in the Purple Sulfur Bacterium Allochromatium vinosum: Evidence for Sulfur Transfer from DsrEFH to DsrC” (PLoS ONE, 2012).
Values joined by “and” are separate entries in the source; they are usually repeats but may differ in a detail not shown here. Identical values can stand only once.

T1: DsrEFH from Allochromatium vinosum (DsrE2F2H2 heterohexamer), wild type (Allochromatium vinosum, UniProt O87896 1-130; O87897 1-136; O87898 1-102)
T1 construct: DsrE, subunit of DsrEFH, Allochromatium vinosum; conserved active-site Cys78; DsrF, subunit of DsrEFH, Allochromatium vinosum; DsrH, subunit of DsrEFH, Allochromatium vinosum; conserved Cys20; source: overproduced and purified as described earlier [22], [8], [3]; not shown: His-tag (subunit inferred: DsrE), N-terminal, kept; copies: 2 + 2 + 2
T1 sequence (looked up) 1: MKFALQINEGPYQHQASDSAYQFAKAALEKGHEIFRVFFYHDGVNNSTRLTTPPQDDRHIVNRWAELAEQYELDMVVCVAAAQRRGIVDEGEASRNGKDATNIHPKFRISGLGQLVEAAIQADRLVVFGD
T1 sequence (looked up) 2: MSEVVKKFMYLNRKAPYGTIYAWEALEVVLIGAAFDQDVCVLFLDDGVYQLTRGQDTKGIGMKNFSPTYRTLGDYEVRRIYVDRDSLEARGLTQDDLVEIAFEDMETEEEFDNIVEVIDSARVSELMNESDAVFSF
T1 sequence (looked up) 3: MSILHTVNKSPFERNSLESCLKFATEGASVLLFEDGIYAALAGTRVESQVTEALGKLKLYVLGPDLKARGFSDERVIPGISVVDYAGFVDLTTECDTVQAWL

B1: DsrC from Allochromatium vinosum, wild type (natural protein, UniProt O87899 1-112, looked up)
chain: MADTIEVDGKQFAVDEEGYLSNLNDWVPGVADVMAKQDNLELTEEHWDIINFLREYYEEYQIAPAVRVLTKAVGKKLGKEKGNSKYLYSLFPYGPAKQACRFAGLPKPTGCV
notes: DsrC, Allochromatium vinosum; conserved Cys100 and Cys111 (Cys111 in the penultimate position of the protein); Reduced with 25 uM TCEP before SPR; also called DsrC wild type; DsrC wt; source: overproduced and purified as described earlier [22], [8], [3]; not shown: His-tag, N-terminal, kept

Key:
[1] = target: T2, DsrEFH (Allochromatium vinosum, UniProt O87896); assay: MALDI-TOF mass spectrometry, mass increase (persulfide); format: binding; settings: 2 mM NaSH, 1 h, 30°C, 50 mM Tris-HCl pH 7.5, 100 mM NaCl; covalent; at DsrE-Cys78
T2 construct: gene dsrE; recombinant, amino-terminal His-tag; alpha2beta2gamma2 heterohexamer; with Intracellular sulfur oxidation protein DsrF; Intracellular sulfur oxidation protein DsrH

[2] = target: T1, DsrEFH from Allochromatium vinosum …; assay: dynamic light scattering; DsrEFH (2 mg/ml) with or without DsrC (0.8 mg/ml), same ratio and conditions as for native gels, 30°C; apparent molecular mass from hydrodynamic diameter; settings: both partners purified
[3] = target: T1, DsrEFH from Allochromatium vinosum …; assay: native gel or EMSA; Blue-native PAGE (10-15%), 4°C, 6 mA; DsrEFH pre-incubated with DsrC in 1:2 ratio as for the native gel; masses from a calibration curve of standards; settings: both partners purified

| Molecule | MALDI-TOF mass spectrometry, mass increase (persulfide) [1] | stoichiometry N [2] | stoichiometry N [3] |
| --- | --- | --- | --- |
| S [sulfide] | The persulfuration was attained by incubation with sulfide as well as with cysteine and IscS. |  |  |
| B1 |  | 1 DsrC:DsrEFH | 1 DsrC per DsrE2F2H2 heterohexamer and 2 DsrC per DsrE2F2H2 heterohexamer |
